# Source: article PMC7367838, “Engineered CRISPR/Cas9 enzymes improve discrimination by slowing DNA cleavage to allow release of off-target DNA”
# Changes are numbered by the printed parent chain.
# B1: sgRNA + on-target 55-bp DNA (mixed)
# RNA: GACGCAUAAAGAUGAGACGCGUUUUAGAGCUAUGCUGUUUUGGAAACAAAACAGCAUAGCAAGUUAAAAUAAGGCUAGUCCGUUAUCAACUUGAAAAAGUGGCACCGAGUCGGUGCUUUUUUUGGAUC
# DNA 1: AGCTGACGTTTGTACTCCAGCGTCTCATCTTTATGCGTCAGCAGAGATTTCTGCT
# DNA 2: AGCAGAAATCTCTGCTGACGCATAAAGATGAGACGCTGGAGTACAAACGTCAGCT
# B2: sgRNA + off-target 55-bp DNA (3-bp PAM-distal mismatch) (mixed)
# RNA: B1 RNA
# DNA 1: B1 DNA 1 with G37C, T38A, C39G
# DNA 2: B1 DNA 2 with G17C, A18T, C19G
# What was measured:
# Conditions in all cases: protein: recombinant; tags: His6-MBP removed by TEV; label: 32P or 6-FAM for cleavage; tCo (position not in material) for unwinding; guide RNA (S25+S26 joined) / target strand / non-target strand; DNA duplex blunt
# [1] = target: T1, SpCas9 (Streptococcus pyogenes, UniProt Q99ZW2 1-1368); assay: stopped-flow and cleavage kinetics, global fit; 1/K1, initial binding step; bracketed value, footnote 3 not in material, may be fixed or from earlier work; Reaction buffer, salt, pH and temperature not in the material; Mg2+ added to start cleavage, omitted for pre-equilibration
# [2] = target: T1, SpCas9; assay: stopped-flow and cleavage kinetics, global fit; Kd,net including R-loop formation; bracketed value, footnote 3 not in material, may be fixed or from earlier work; Reaction buffer, salt, pH and temperature not in the material; Mg2+ added to start cleavage, omitted for pre-equilibration
# [3] = target: T1, SpCas9; assay: stopped-flow and cleavage kinetics, global fit; 1/K1, initial binding step; Reaction buffer, salt, pH and temperature not in the material; Mg2+ added to start cleavage, omitted for pre-equilibration
# [4] = target: T1, SpCas9; assay: stopped-flow and cleavage kinetics, global fit; Kd,net including R-loop formation; Reaction buffer, salt, pH and temperature not in the material; Mg2+ added to start cleavage, omitted for pre-equilibration
# T1 sequence (Q99ZW2 whole entry): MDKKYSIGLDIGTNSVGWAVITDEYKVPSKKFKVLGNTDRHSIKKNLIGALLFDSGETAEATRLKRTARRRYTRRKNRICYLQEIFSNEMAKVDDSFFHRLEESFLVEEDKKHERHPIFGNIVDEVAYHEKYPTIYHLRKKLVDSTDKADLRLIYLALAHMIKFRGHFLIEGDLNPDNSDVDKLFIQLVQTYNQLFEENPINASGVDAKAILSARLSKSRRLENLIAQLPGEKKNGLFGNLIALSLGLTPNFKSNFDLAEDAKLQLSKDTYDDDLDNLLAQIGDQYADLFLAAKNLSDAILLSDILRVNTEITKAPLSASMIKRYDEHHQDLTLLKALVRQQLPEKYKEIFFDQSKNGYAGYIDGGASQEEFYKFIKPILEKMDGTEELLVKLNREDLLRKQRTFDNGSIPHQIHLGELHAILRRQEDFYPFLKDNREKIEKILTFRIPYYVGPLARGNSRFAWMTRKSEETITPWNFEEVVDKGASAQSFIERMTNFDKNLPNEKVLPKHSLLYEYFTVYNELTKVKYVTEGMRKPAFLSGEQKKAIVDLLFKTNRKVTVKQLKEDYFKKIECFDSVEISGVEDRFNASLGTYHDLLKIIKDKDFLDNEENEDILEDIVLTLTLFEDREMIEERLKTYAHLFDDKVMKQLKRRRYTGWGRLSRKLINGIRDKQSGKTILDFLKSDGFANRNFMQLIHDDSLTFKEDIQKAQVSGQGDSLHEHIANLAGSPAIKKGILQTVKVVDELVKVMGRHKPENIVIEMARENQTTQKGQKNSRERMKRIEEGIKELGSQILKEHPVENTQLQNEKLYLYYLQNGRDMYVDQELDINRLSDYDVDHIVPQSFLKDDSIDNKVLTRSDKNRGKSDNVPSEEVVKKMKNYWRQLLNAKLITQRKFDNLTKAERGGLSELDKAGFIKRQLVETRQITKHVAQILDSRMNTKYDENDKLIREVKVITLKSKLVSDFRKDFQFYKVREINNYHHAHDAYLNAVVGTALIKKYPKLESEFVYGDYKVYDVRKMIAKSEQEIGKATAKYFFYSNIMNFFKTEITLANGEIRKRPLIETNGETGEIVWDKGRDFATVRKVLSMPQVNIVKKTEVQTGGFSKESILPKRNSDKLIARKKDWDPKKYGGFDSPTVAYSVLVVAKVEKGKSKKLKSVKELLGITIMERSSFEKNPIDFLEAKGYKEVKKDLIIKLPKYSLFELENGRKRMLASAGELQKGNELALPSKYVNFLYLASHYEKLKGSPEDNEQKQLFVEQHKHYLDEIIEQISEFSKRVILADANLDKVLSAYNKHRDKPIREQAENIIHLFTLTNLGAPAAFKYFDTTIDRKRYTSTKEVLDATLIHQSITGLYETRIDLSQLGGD
Binder,Kd [1] [nM],Kd [2] [nM],Kd [3] [nM],Kd [4] [nM]
B1,3,1,,
B2,,,24,8.1
